This assay has as its target Deinococcus radiodurans MazF (MazF-dr) (Deinococcus radiodurans). Briefly: crystal structure; apo MazF-dr with N-terminal 6x His-tag, 5 mg/mL, sitting-drop vapor diffusion at 293 K; 0.2 M ammonium sulfate, 0.1 M Bis-Tris pH 5.5, 25% w/v PEG 3350; space group P4(3)2(1)2, dimer in the asymmetric unit; 1.3 Å.

Turning to “Deinococcus radiodurans MazF (MazF-dr) (enzyme)”, the stoichiometry N (commonly the number of molecules, sites or subunits per partner or assembly) worked out at 2.

The values are drawn from PMC7933679.
